# From patent publication US20160200830A1 (NANJING LEGEND BIOTECH, published 2016)
# B1: sdAb A60401 (VHH)
# VHH: QVKLEESGGGLVQAGGSLRLSCEASGNVFTIAAMGWFRQAPGKERELVAGITTGGSTNYADSVKGRFTISRDNAQNTMYLQMNSLRPEDTAAYSCNAVTKWAARVGGSAEYEYWGQGTQVTVSS
# notes: Llama sdAb, made in E. coli periplasm, His-tagged, for SPR; not shown: C-terminal histidine tag added by vector pSJF2H
# B2: sdAb A13376 (VHH)
# VHH: QVKLEESGGGLVQAGGSLRLSCAASGNVFTIAAMAWYRQAPGKERELVAGITTGGSTNYADSVKGRFTISRDNAQNTMYLQMNSLRPEDTAVYFCNAVTKWAARVGGSAEYEYWGQGTQVTVSS
# B3: sdAb A60219 (VHH)
# VHH: QVQLVESGGGLVQAGGSLRLSCVASGSGFGINGVIWYRQAPGKQRELVALIKSDGYTNYRESVKGRFTISRDDAKNTVWLQMNALEPEDTGVYYCKTPGVPFGQGTQVTVSS
# notes: Llama sdAb, made in E. coli periplasm, His-tagged, for SPR; also called A602019; not shown: C-terminal histidine tag added by vector pSJF2H
# B4: sdAb A13355 (VHH)
# VHH: QVKLEESGGGLVQAGGSLRLSCVASGSGFGINGVIWYRQAPGKQRELVALIKSDGYTNYRESVRGRFTISRDDAKNTVWLQMNALEPEDTGVYYCKTPGVPFGQGTQVTVSS
# B5: sdAb A12692 (VHH)
# VHH: EVQLVECGGGLVQAGGSLRLSCVASGSGFGINGVIWYRQAPGKQRELVALIKSDGYTNYRESVKGRFTISRDDAKNTVWLQMNALEPEDTGVYYCKTPGVPFGQGTQVTVSS
# B6: sdAb A13152 (VHH)
# VHH: QVQLVESGGGLVQAGGSLRLSCVAPGSGFGINGVIWYRQAPGKQRELVALIKSDGYTNYRESVKGRFTISRDDAKNTVWLQMNALEPEDTGVYYCKTPGVPFGQGTQVTVSS
# B7: sdAb A13154 (VHH)
# VHH: QVQLVESGGGLVQPGGSLRLSCVASGSGFGINGVIWYRQAPGKQRELVALIKSDGYTNYRESVKGRFTISRDDAKNTVWLQMSALEPEDTGVYYCKTPGVPFGQGTQVTVSS
# B8: sdAb A12690 (VHH)
# VHH: QVQLVESGGGLVQPGGSLRLSCVASGSGFGINGVIWYRQAPGKRRELVALIKSDGYTNYRESVKGRFTISRDDAKNTVWLQMNALEPEDTGVYYCKTPGVPFGQGTQVTVSS
# B9: sdAb A12666 (VHH)
# VHH: QVKLEESGGGLVQAGGSLRLSCVASGSGFGVNGVIWYRQAPGKQRELVALIKSDGYTNYRESVKGRFTISRDDAKNTVWLQMNALEPEDTGVYYCKTPGVPFGQGTQVTVSS
# B10: sdAb A12659 (VHH)
# VHH: EVQLVECGGGLVQAGGSLRLSCVASGSGFGINGVIWYRQAPGKQRELVALIKSDGYTNYRESVKGRFTISRDDARNTVWLQMNALEPEDTGVYYCKTPGVPFGQGTQVTVSS
# B11: sdAb A69449 (VHH)
# VHH: QVQLVESGGGVVQAGGSLRLSCVASGSVFSIDAMGWYRQAPGNQRELVAAMTNAGSTNYADSVKGRFTISRDNAENTVYLQMNSLKPEDTAVYYCNARSKLIARINNPYEYWGQGTQVTVSS
# notes: Llama sdAb, made in E. coli periplasm, His-tagged, for SPR; also called A60449; not shown: C-terminal histidine tag added by vector pSJF2H
# B12: sdAb A69447 (VHH)
# VHH: QVKLEESGGGSVQAGGSLRLSCTGSGSIFPLNDMGWYRQAPGKQRELVATITRGGTTNYADSVKGRFTISRDSNAKNTVYLQMNSLKVEDTAVYYCNMDNRVGGSYWGQGTQVTVSS
# notes: as for B1
# B13: sdAb A69441 (VHH)
# VHH: QVKLEESGGGLVQPGGSLRLSCAASGSIFSIKVMGWYRQAPGKQRELVADITSGGSTDYSDSVKGRFTISRDNAKNTVYLQMNSLKPEDTAVYYCNADLGCSGAGSCPDYWGQGTQVTVSS
# B14: sdAb A69476 (VHH)
# VHH: QVKLEESGGGLVQPGGSLRLSCAASGNVFTIDAMGWYRQAPGKEREVVVGMTNGGKTNYADSVKGRFTISRDNAKNTVSLQMNSLKPEDTAVYYCYARSKLIATINNPYDYWGQGTQVTVSS
# B15: sdAb A69433 (VHH)
# VHH: QVKLEESGGGLVQAGGSLRLSCVASGNVFGIDAVGWYRQAPGKQRELVAATTTSGSSTNYADSVKGRFTISRDIAKNTVYLQMDSLKPEDTAVYYCYARPKQATLIRDDYWGQGTQVTVSS
# notes: as for B1
# Legend:
# human transferrin [1] = target: T1, human transferrin (human, UniProt P02787 20-698); assay: SPR, Biacore T200, transferrin immobilized on CM5 chip, sdAb as analyte
# T1 construct: Immobilized on a CM5 chip by amine coupling (SPR) or coated on a plate (phage ELISA)
# T1 sequence (P02787 20-698 limits assumed): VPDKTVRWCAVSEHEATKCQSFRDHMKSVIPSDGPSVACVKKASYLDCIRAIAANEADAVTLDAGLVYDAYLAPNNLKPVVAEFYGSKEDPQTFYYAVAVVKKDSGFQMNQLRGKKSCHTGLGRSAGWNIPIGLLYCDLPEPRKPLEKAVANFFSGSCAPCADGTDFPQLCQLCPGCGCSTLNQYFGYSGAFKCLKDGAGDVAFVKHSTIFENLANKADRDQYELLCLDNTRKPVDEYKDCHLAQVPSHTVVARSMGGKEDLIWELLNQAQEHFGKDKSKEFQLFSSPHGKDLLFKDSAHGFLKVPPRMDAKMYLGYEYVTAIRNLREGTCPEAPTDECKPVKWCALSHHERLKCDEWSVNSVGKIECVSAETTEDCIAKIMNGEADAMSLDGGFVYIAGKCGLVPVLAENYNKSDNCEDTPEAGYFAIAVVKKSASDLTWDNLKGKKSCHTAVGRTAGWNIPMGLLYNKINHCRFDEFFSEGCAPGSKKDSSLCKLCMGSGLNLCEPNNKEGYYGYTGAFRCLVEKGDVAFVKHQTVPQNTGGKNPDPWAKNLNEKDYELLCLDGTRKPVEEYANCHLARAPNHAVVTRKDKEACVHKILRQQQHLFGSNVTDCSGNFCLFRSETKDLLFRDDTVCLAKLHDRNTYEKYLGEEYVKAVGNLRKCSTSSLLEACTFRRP
# Method: Experiments were performed using a BIAcore T200 optical sensor platform and research grade CM5 sensor chips (GE Healthcare). Human transferrin was immobilized on the sensor chip surface by standard amine coupling. All experiments were carried out in HEPES buffer [10 mM HEPES (pH 7.4), 150 mM NaCl, 3.4 mM EDTA, 0.005% Tween 20] at 25° C. Antibodies were injected at serial dilutions ranging from 0.25 nM to 16 nM at a flow rate of 30 μl/min unless otherwise indicated. The amount of bound analyte after subtraction from the blank control surface is shown as relative response units (RU). The double referenced sensorgrams from each injection series were analyzed for binding kinetics using BIA evaluation software (GE Healthcare). Dissociation constants (KDs) were calculated from the on- and off-rates (kₒₙ and koff, respectively), as determined by global fitting of the experimental data to a 1:1 Langmuir binding model (Chi²<1).
# human transferrin [2] = target: T1, human transferrin; assay: phage display panning and phage ELISA
# Method: The llama immune phage display library was panned against transferrin that was conjugated to M-280 beads (Invitrogen). Approximately 3×10¹¹ phages were added to the beads and incubated at 37° C. for 2 hours for antigen binding. After disposal of unbound phages, the beads were washed six times with phosphate buffered saline supplemented with 0.05% Tween 20 (PBST) for round one, and the washes were increased by one for each additional round. Phages were eluted by 10 min incubation with 100 μl 100 mM triethylamine, and the eluate was subsequently neutralized with 200 μl 1 M Tris-HCl (pH 7.5). Phages were amplified as described above, but on a smaller scale. After two rounds of panning, eluted phages were used to infect exponentially growing E. coli TG1. Individual colonies were used in phage enzyme-linked immunosorbent assay (ELISA).
# For phage ELISA, a 96-well microliter plate was coated overnight with 2 μg/ml human transferrin and then blocked with 4% […] phosphate buffered saline (MPBS) for 2 hours at 37° C. Phage from individual clones were pre-blocked with 4% MPBS overnight, added to the pre-blocked wells and incubated for 1 hour. Phage ELISA was performed using the GE Healthcare Detection Module Recombinant Phage Antibody System (GE Healthcare, Uppsala, Sweden) and positive phage clones were sequenced.
# human transferrin [3] = target: T1, human transferrin; assay: SPR, transferrin immobilized, sdAb as analyte
# monkey transferrin = monkey transferrin (monkey); assay: SPR, transferrin immobilized, sdAb as analyte
binder,measurement,setting,value
B1,Kd,human transferrin [1],0.0671 nM
same,koff,human transferrin [1],6.22e-05 s⁻¹
same,kon,human transferrin [1],927000 M⁻¹ s⁻¹
B2,binding result,human transferrin [2],binds
B3,Kd,human transferrin [1],0.0131 nM
same,koff,human transferrin [1],0.000674 s⁻¹
same,kon,human transferrin [1],5.14e+07 M⁻¹ s⁻¹
B4,binding result,human transferrin [2],binds
B5,binding result,human transferrin [2],binds
B6,binding result,human transferrin [2],binds
B7,binding result,human transferrin [2],binds
B8,binding result,human transferrin [2],binds
B9,binding result,human transferrin [2],binds
B10,binding result,human transferrin [2],binds
B11,Kd,human transferrin [3],2.03 nM
same,koff,human transferrin [3],0.000695 s⁻¹
same,kon,human transferrin [3],342000 M⁻¹ s⁻¹
same,Kd,monkey transferrin,1.12 nM
same,koff,monkey transferrin,0.000529 s⁻¹
same,kon,monkey transferrin,471000 M⁻¹ s⁻¹
B12,Kd,human transferrin [3],1.03 nM
same,koff,human transferrin [3],0.000209 s⁻¹
same,kon,human transferrin [3],203000 M⁻¹ s⁻¹
same,Kd,monkey transferrin,0.25 nM
same,koff,monkey transferrin,7.58e-05 s⁻¹
same,kon,monkey transferrin,304000 M⁻¹ s⁻¹
B13,binding result,human transferrin [2],binds
B14,binding result,human transferrin [2],binds
B15,Kd,human transferrin [3],5.76 nM
same,koff,human transferrin [3],0.000642 s⁻¹
same,kon,human transferrin [3],111000 M⁻¹ s⁻¹
same,Kd,monkey transferrin,2.4 nM
same,koff,monkey transferrin,0.000593 s⁻¹
same,kon,monkey transferrin,247000 M⁻¹ s⁻¹
